Biological target: the molecule itself
Assay: AUC

B1: phosphorylated intracellular domain of PknB_(1-330) (kinase domain and juxtamembrane linker) (domain or fragment)
chain: MTTPSHLSDRYELGEILGFGGMSEVHLARDLRLHRDVAVKVLRADLARDPSFYLRFRREAQNAAALNHPAIVAVYDTGEAETPAGPLPYIVMEYVDGVTLRDIVHTEGPMTPKRAIEVIADACQALNFSHQNGIIHRDVKPANIMISATNAVKVMDFGIARAIADSGNSVTQTAAVIGTAQYLSPEQARGDSVDARSDVYSLGCVLYEVLTGEPPFTGDSPVSVAYQHVREDPIPPSARHEGLSADLDAVVLKALAKNPENRYQTAAEMRADLVRVHNGEPPEAPKVLTDAERTSLLSSAAGNLSGPRTDPLPRQDLDDTDRDRSIGSVG
  Kd: ~2900 µM
